Source: patent publication US20220177583A1

Legend:
[1] = target: human CLDN6, endogenously expressed on cancer cell lines (human) (UniProt P56747); assay: flow cytometry on UMUC4 cells (Positive Cell Line), secondary antibody alone; the same number stands under the 0.1µg and the 1µg head
[2] = target: human CLDN6, endogenously expressed on cancer cell lines (human) (UniProt P56747); assay: FACS, ARK2 cells, secondary antibody alone (negative control, background; column 1.5 ug)
[3] = target: human CLDN6, endogenously expressed on cancer cell lines (human) (UniProt P56747); assay: FACS, ARK2 cells, secondary antibody alone (negative control, background; column 0.3 ug)
[4] = target: human CLDN6, endogenously expressed on cancer cell lines (human) (UniProt P56747); assay: FACS on ARK2 cells, secondary antibody only; number from the data table under the bars
[5] = target: human CLDN6 fused to GFP, expressed on engineered HEK293T cells (human) (UniProt P56747); assay: FACS on 293T CLDN6 mGFP Clone A11 cells, secondary antibody only; number from the data table under the bars
[6] = target: T1, mouse CLDN6 fused to GFP, expressed on engineered HEK293T cells (mouse) (UniProt Q9Z262); assay: FACS, 293T clone with mouse CLDN6, secondary antibody alone (negative control, background)
T1 sequence (looked up): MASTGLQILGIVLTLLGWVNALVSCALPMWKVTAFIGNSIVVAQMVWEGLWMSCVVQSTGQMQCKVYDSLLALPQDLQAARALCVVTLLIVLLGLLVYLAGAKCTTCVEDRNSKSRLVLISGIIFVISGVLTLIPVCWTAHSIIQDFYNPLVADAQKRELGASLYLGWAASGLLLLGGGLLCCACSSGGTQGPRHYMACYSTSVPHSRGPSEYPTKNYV

[7] = target: human CLDN6 fused to GFP, expressed on engineered HEK293T cells (human) (UniProt P56747); assay: flow cytometry on HEK293T CLDN6-mGFP A11 cells (Positive Artificial OE Cell Line), secondary antibody alone; the same number stands under the 0.1µg and the 1µg head
[8] = target: human CLDN6 fused to GFP, expressed on engineered HEK293T cells (human) (UniProt P56747); assay: FACS, 293T clone with human CLDN6, secondary antibody alone (negative control, background; column 1.5 ug Ab)
[9] = target: human CLDN6, endogenously expressed on cancer cell lines (human) (UniProt P56747); assay: FACS on OVCA429 cells, sample 1: no 1o, 2nd antibody NBP1-51902, 2o wash 2x
[10] = target: human CLDN6 fused to GFP, expressed on engineered HEK293T cells (human) (UniProt P56747); assay: FACS, 293T clone with human CLDN6, secondary antibody alone (negative control, background; column 0.3 ug Ab)
[11] = target: human CLDN6, endogenously expressed on cancer cell lines (human) (UniProt P56747); assay: FACS, OVCA429 cells, secondary antibody alone (negative control, background; column 1.5 ug)

human CLDN6, endogenously expressed on cancer cell lines (human), sequence (P56747 whole entry, the tested form may be a part): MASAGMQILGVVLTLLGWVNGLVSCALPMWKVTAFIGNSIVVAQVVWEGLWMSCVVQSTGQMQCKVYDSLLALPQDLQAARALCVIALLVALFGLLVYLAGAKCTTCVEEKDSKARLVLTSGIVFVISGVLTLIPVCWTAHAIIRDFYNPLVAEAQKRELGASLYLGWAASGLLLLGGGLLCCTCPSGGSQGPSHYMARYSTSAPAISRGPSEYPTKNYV

flow cytometry signal [1]: 1110 | FACS signal [2]: 1350 | FACS signal [3]: 1350 | FACS signal [6]: 1060 | flow cytometry signal [7]: 1240 | FACS signal [8]: 768 | Dylight 649 Signal by C6 [9]: 1210 | FACS signal [10]: 768 | FACS signal [11]: 886
Substance: 2nd Ab only (secondary detection antibody alone, negative control)
FL4H Singlets in Viable cells [4]: 9130 | FL4H Singlets in Viable cells [5]: 9420
